# Reference: publication PMC9352680, “A comprehensive thermodynamic model for RNA binding by the Saccharomyces cerevisiae Pumilio protein PUF4”
# T1: PUF4 RNA-binding domain (Saccharomyces cerevisiae, UniProt P25339 537-888)
# T1 sequence: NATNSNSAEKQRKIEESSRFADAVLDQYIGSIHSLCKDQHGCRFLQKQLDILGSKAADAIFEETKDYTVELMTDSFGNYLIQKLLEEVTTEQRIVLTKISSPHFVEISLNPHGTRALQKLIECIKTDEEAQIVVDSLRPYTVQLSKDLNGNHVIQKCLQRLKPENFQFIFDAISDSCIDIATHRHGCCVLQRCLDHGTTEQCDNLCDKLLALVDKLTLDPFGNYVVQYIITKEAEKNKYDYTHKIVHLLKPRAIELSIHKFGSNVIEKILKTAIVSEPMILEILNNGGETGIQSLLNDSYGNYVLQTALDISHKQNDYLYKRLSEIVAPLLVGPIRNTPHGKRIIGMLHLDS
# Target: T1, PUF4 RNA-binding domain
# Test: Mg; RNA-MaP; 20 mM Na-HEPES pH 7.4, 30 mM KOAc, 0.75 mM MgCl2, 0.1% Tween-20, 5% glycerol, 0.1 mg/mL BSA, 2 mM DTT; 25 C; 0.0125-409.6 nM protein
# Conditions: tags: N-His6-TEV cleaved; C-SNAP kept, Cy3B-labelled; label: tethered on chip by stalled RNA polymerase
row,Binder,Kd
1,ACAAACGAUAUAUAUACAACAAAC (ssRNA) [Id_ii_S3_P3E.3_K3.2_C3.2_[C-2G]_[T-1A]_H3.2_A3.1_F3.1_T3.2_[T9C]],839 nM
2,ACAAACUUUAUAUAUACAACAAAC (ssRNA) [Id_ii_S3_P3E.3_K3.2_C3.2_[C-2T]_H3.2_A3.1_F3.1_T3.2_[T9C]],925 nM
3,ACAAACGGUAUAUAUAUGACAAAC (ssRNA) [Id_ii_S3_P3E.3_K3.2_C3.2_[C-2G]_[T-1G]_H3.2_A3.1_F3.1_T3.2_[A10G]],552 nM
4,ACAAACUCUAUAUAUAACACAAAC (ssRNA) [Id_ii_S3_P3E.3_K3.2_C3.2_[C-2T]_[T-1C]_H3.2_A3.1_F3.1_T3.2_[T9A]_[A10C]],599 nM
5,ACAAACUAUAUAUAUAACACAAAC (ssRNA) [Id_ii_S3_P3E.3_K3.2_C3.2_[C-2T]_[T-1A]_H3.2_A3.1_F3.1_T3.2_[T9A]_[A10C]],376 nM
6,ACAAACGUUAUAUAUACCACAAAC (ssRNA) [Id_ii_S3_P3E.3_K3.2_C3.2_[C-2G]_H3.2_A3.1_F3.1_T3.2_[T9C]_[A10C]],1700 nM
7,ACAAACGUUAUAUAUAGUACAAAC (ssRNA) [Id_ii_S3_P3E.3_K3.2_C3.2_[C-2G]_H3.2_A3.1_F3.1_T3.2_[T9G]_[A10T]],292 nM
8,ACAAACAUUAUAUAUAUCACAAAC (ssRNA) [Id_ii_S3_P3E.3_K3.2_C3.2_[C-2A]_H3.2_A3.1_F3.1_T3.2_[A10C]],450 nM
9,ACAAACGCUAUAUAUAUUACAAAC (ssRNA) [Id_ii_S3_P3E.3_K3.2_C3.2_[C-2G]_[T-1C]_H3.2_A3.1_F3.1_T3.2_[A10T]],45.1 nM
10,ACAAACCCUAUAUAUAGUACAAAC (ssRNA) [Id_ii_S3_P3E.3_K3.2_C3.2_[T-1C]_H3.2_A3.1_F3.1_T3.2_[T9G]_[A10T]],392 nM
11,ACAAACUCUAUAUAUAUUACAAAC (ssRNA) [Id_ii_S3_P3E.3_K3.2_C3.2_[C-2T]_[T-1C]_H3.2_A3.1_F3.1_T3.2_[A10T]],39 nM
12,ACAAACACUAUAUAUACCACAAAC (ssRNA) [Id_ii_S3_P3E.3_K3.2_C3.2_[C-2A]_[T-1C]_H3.2_A3.1_F3.1_T3.2_[T9C]_[A10C]],816 nM
13,UCUCUUUGUAUUGUAAUCUCUU (ssRNA) [Ib_S1_P5E.1_K5.1_C5.1_H5.1_A5.1_[A7G]_F5.1_[T9A]_T5.1],10.6 nM
14,ACAAACAUUAUAUAUAAUACAAAC (ssRNA) [Id_ii_S3_P3E.3_K3.2_C3.2_[C-2A]_H3.2_A3.1_F3.1_T3.2_[T9A]_[A10T]],381 nM
15,ACAAACUUUAUAUAUAACACAAAC (ssRNA) [Id_ii_S3_P3E.3_K3.2_C3.2_[C-2T]_H3.2_A3.1_F3.1_T3.2_[T9A]_[A10C]],522 nM
16,ACAAACUCUAUAUAUAGCACAAAC (ssRNA) [Id_ii_S3_P3E.3_K3.2_C3.2_[C-2T]_[T-1C]_H3.2_A3.1_F3.1_T3.2_[T9G]_[A10C]],767 nM

row,Binder,Kd
1,UCUCUUUGUAUUUUCAUCUCUU (ssRNA) [Ic_S1_P5E.1_K5.1_C5.1_H5.1_A5.1_[A7T]_F5.1_[T9C]_T5.1],32.5 nM
2,ACAAACUAUAUAUAUACAACAAAC (ssRNA) [Id_ii_S3_P3E.3_K3.2_C3.2_[C-2T]_[T-1A]_H3.2_A3.1_F3.1_T3.2_[T9C]],205 nM
3,ACAAACAUUAUAUAUAGUACAAAC (ssRNA) [Id_ii_S3_P3E.3_K3.2_C3.2_[C-2A]_H3.2_A3.1_F3.1_T3.2_[T9G]_[A10T]],67.5 nM
4,ACAAACGUUAUAUAUAAUACAAAC (ssRNA) [Id_ii_S3_P3E.3_K3.2_C3.2_[C-2G]_H3.2_A3.1_F3.1_T3.2_[T9A]_[A10T]],660 nM
5,ACAAACCGUAUAUAUAGAACAAAC (ssRNA) [Id_ii_S3_P3E.3_K3.2_C3.2_[T-1G]_H3.2_A3.1_F3.1_T3.2_[T9G]],366 nM
6,ACAAACACUAUAUAUACUACAAAC (ssRNA) [Id_ii_S3_P3E.3_K3.2_C3.2_[C-2A]_[T-1C]_H3.2_A3.1_F3.1_T3.2_[T9C]_[A10T]],43.8 nM
7,ACAAACUUUAUAUAUAUAACAAAC (ssRNA) [Id_ii_S3_P3E.3_K3.2_C3.2_[C-2T]_H3.2_A3.1_F3.1_T3.2],595 nM
8,ACAAACACUAUAUAUACAACAAAC (ssRNA) [Id_ii_S3_P3E.3_K3.2_C3.2_[C-2A]_[T-1C]_H3.2_A3.1_F3.1_T3.2_[T9C]],735 nM
9,ACAAACCGUAUAUAUAAAACAAAC (ssRNA) [Id_ii_S3_P3E.3_K3.2_C3.2_[T-1G]_H3.2_A3.1_F3.1_T3.2_[T9A]],697 nM
10,UCUCUUUGUAUUGUCAUCUCUU (ssRNA) [Ib_S1_P5E.1_K5.1_C5.1_H5.1_A5.1_[A7G]_F5.1_[T9C]_T5.1],140 nM
11,ACAAACAAUAUAUAUACGACAAAC (ssRNA) [Id_ii_S3_P3E.3_K3.2_C3.2_[C-2A]_[T-1A]_H3.2_A3.1_F3.1_T3.2_[T9C]_[A10G]],1290 nM
12,ACAAACGAUAUAUAUAGGACAAAC (ssRNA) [Id_ii_S3_P3E.3_K3.2_C3.2_[C-2G]_[T-1A]_H3.2_A3.1_F3.1_T3.2_[T9G]_[A10G]],535 nM
13,ACAAACGCUAUAUAUAACACAAAC (ssRNA) [Id_ii_S3_P3E.3_K3.2_C3.2_[C-2G]_[T-1C]_H3.2_A3.1_F3.1_T3.2_[T9A]_[A10C]],1130 nM
14,ACAAACUCUAUAUAUAAUACAAAC (ssRNA) [Id_ii_S3_P3E.3_K3.2_C3.2_[C-2T]_[T-1C]_H3.2_A3.1_F3.1_T3.2_[T9A]_[A10T]],72 nM
15,ACAAACACUAUAUAUAUGACAAAC (ssRNA) [Id_ii_S3_P3E.3_K3.2_C3.2_[C-2A]_[T-1C]_H3.2_A3.1_F3.1_T3.2_[A10G]],572 nM
